Experimental data reported in PMC8445998 (Nature Communications, 2021).
Substitutions are numbered along the chain they refer to. Names may count otherwise.

T1: His6-TF-SUMO-OsCOI1b (rice, UniProt Q60EH4 1-597)
T1 construct: also called His6-OsCOI1b
T1 sequence (looked up): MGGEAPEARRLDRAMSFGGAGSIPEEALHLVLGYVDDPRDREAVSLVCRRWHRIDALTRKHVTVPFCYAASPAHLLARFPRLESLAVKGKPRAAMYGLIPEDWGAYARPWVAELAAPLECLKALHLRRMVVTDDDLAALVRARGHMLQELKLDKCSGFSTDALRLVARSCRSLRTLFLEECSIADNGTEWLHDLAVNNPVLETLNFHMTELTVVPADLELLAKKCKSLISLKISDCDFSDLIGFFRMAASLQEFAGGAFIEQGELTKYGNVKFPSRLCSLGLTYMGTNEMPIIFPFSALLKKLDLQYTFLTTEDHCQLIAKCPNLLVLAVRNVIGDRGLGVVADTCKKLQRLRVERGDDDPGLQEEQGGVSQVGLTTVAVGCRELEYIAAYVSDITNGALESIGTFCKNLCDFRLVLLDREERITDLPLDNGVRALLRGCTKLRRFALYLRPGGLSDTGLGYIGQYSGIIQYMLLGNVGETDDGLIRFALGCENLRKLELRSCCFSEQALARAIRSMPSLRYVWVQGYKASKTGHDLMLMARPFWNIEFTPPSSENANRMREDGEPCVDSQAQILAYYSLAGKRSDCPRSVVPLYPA

T2: His6-TF-SUMO-tagged OsCOI1b^R9A (rice, UniProt Q60EH4 1-597, R9A)
T2 sequence (looked up): T1 sequence (looked up) with R9A

T3: His6-TF-SUMO-tagged OsCOI1b^R13A (rice, UniProt Q60EH4 1-597, R13A)
T3 sequence (looked up): T1 sequence (looked up) with R13A

T4: His6-TF-SUMO-tagged OsCOI1b^R10A (rice, UniProt Q60EH4 1-597, R10A)
T4 sequence (looked up): T1 sequence (looked up) with R10A

B1: His6-OSK1^S53D (natural protein, rice, UniProt Q6PL11 1-173, looked up)
chain: MAAEGEKKMITLKSSDGEEFEVEEAVAMESQTIRHMIEDDCADNGIPLPNVNDKILSKVIEYCNKHVHAAAAAASKAADDAASAAAAVPPPSGEDLKNWDADFVKVDQATLFDLILAANYLNIKGLLDLTCQTVADMIKGKTPEEIRKTFNIKNDFTPEEEEEIRRENQWAFE
B2: His6-OSK1 (natural protein, rice, UniProt Q6PL11 1-173, looked up)
chain: B1 chain with D53S
B3: GST-OSK1 (natural protein, rice, UniProt Q6PL11 1-173, looked up)
chain: B1 chain with D53S
notes: not shown: GST, N-terminal, kept
B4: GST-OSK1^S53D (natural protein, rice, UniProt Q6PL11 1-173, looked up)
chain: B1 chain
notes: as for B3

Experiments:
Details in all cases: both partners purified
His6-TF-SUMO-OsCOI1b = target: T1, His6-TF-SUMO-OsCOI1b; assay: MST
[1] = target: T2, His6-TF-SUMO-tagged OsCOI1b^R9A; assay: pull-down
[2] = target: T3, His6-TF-SUMO-tagged OsCOI1b^R13A; assay: pull-down
[3] = target: T4, His6-TF-SUMO-tagged OsCOI1b^R10A; assay: pull-down

| Binder | Kd (His6-TF-SUMO-OsCOI1b) [nM] | binding result [1] | binding result [2] | binding result [3] |
| --- | --- | --- | --- | --- |
| B1 | 12.7 |  |  |  |
| B2 | 53.8 |  |  |  |
| B3 |  | binds | binds | binds |
| B4 |  | binds | binds | binds |
